Measurements as given in patent publication US20210355194A1 (TWIST BIOSCIENCE, published 2021).
Read-outs that look alike come from different tables or passages of the source.

What was measured:
[1] = molecular target: T1, ACE2 (human, UniProt Q9BYF1 18-740)
[2] = molecular target: T1, ACE2; remark: listed apart in the source
[3] = molecular target: T2, Acro SARS-CoV-2 (COVID-19) S1 protein (SARS-CoV-2, UniProt P0DTC2 16-685); experiment: SPR
T2 construct: also called SARS-CoV-2 S1

T1 sequence (Q9BYF1 18-740 limits assumed): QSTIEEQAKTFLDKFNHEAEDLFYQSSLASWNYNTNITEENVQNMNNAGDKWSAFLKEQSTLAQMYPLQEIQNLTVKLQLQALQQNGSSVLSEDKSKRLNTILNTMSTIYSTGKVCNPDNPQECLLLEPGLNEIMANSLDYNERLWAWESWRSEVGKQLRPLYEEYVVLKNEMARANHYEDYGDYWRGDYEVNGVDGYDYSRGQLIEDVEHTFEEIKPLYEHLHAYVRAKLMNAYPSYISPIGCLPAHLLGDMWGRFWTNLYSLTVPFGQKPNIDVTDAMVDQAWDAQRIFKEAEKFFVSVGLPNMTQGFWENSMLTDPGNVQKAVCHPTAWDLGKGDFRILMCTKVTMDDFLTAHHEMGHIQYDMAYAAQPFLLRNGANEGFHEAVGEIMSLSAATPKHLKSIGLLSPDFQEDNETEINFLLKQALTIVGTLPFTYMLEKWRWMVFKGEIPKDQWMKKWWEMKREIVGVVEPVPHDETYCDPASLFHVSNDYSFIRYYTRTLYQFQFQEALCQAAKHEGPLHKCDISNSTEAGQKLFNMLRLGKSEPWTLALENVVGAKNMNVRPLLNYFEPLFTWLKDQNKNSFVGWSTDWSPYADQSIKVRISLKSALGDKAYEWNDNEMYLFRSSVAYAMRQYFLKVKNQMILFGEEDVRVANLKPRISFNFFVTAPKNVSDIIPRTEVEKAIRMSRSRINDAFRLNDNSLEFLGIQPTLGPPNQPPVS

B1: ACE2 variant antibody 4-62 (VHH)
VHH: EVQLVESGGGLVQPGGSLRLSCAASGRTFSDDTMGWFRQAPGKEREFVAAINWSGGSTDYADSVKGRFTISADNSKNTAYLQMNSLKPEDTAVYYCATDPPLFWGQGTLVTVSS
[1]
  Kd: 14.9 nM
  koff: 0.00365 s⁻¹
  kon: 245000 M⁻¹ s⁻¹
[2]
  koff: 0.00365 s⁻¹
  kon: 245000 M⁻¹ s⁻¹

B2: ACE2 variant antibody 4-75 (VHH)
VHH: EVQLVESGGGLVQPGGSLRLSCAASGRTFGDDTMGWFRQAPGKEREFVAAINWTGGYTPYADSVKGRFTISADNSKNTAYLQMNSLKPEDTAVYYCATDPPLFWGQGTLVTVSS
[1]
  Kd: 16 nM
  koff: 0.00478 s⁻¹
  kon: 299000 M⁻¹ s⁻¹
[2]
  koff: 0.00478 s⁻¹
  kon: 299000 M⁻¹ s⁻¹

B3: ACE2 variant antibody 4-82 (VHH)
VHH: EVQLVESGGGLVQPGGSLRLSCAASGRTFGDYAMGWFRQAPGKEREFVAAINWSGGYTRYADSVKGRFTISADNSKNTAYLQMNSLKPEDTAVYYCATDPPLFWGQGTLVTVSS
[1]
  Kd: 11.1 nM
  koff: 0.00333 s⁻¹
  kon: 301000 M⁻¹ s⁻¹
[2]
  koff: 0.00333 s⁻¹
  kon: 301000 M⁻¹ s⁻¹

B4: ACE2 variant antibody 4-69 (VHH)
VHH: EVQLVESGGGLVQPGGSLRLSCAASGRTFSDDAMGWFRQAPGKEREFVAAINWSGGTTRYADSVKGRFTISADNSKNTAYLQMNSLKPEDTAVYYCATDPPLFWGQGTLVTVSS
[1]
  Kd: 25.8 nM
  koff: 0.00256 s⁻¹
  kon: 99400 M⁻¹ s⁻¹
[2]
  koff: 0.00256 s⁻¹
  kon: 99400 M⁻¹ s⁻¹

B5: ACE2 variant antibody 4-76 (VHH)
VHH: EVQLVESGGGLVQPGGSLRLSCAASGRTFGDYAMGWFRQAPGKERELVAPINWSGGSTYYADSVKGRFTISADNSKNTAYLQMNSLKPEDTAVYYCATDPPLFWGQGTLVTVSS
[1]
  Kd: 31.8 nM
  koff: 0.00428 s⁻¹
  kon: 135000 M⁻¹ s⁻¹
[2]
  koff: 0.00428 s⁻¹
  kon: 135000 M⁻¹ s⁻¹

B6: ACE2 variant antibody 4-67 (VHH)
VHH: EVQLVESGGGLVQPGGSLRLSCAASGRTFSDDTMGWFRQAPGKEREFVAAINWSGDSTYYADSVKGRFTISADNSKNTAYLQMNSLKPEDTAVYYCATDPPLFWGQGTLVTVSS
[1]
  Kd: 22.8 nM
  koff: 0.00214 s⁻¹
  kon: 93900 M⁻¹ s⁻¹
[2]
  koff: 0.00214 s⁻¹
  kon: 93900 M⁻¹ s⁻¹

B7: ACE2 variant antibody 4-74 (VHH)
VHH: EVQLVESGGGLVQPGGSLRLSCAASGLTFSDDTMGWFRQAPGKEREFVAAVSWSGGNTYYADSVKGRFTISADNSKNTAYLQMNSLKPEDTAVYYCATDPPLFWGQGTLVTVSS
[1]
  Kd: 11.5 nM
  koff: 0.00285 s⁻¹
  kon: 248000 M⁻¹ s⁻¹
[2]
  koff: 0.00285 s⁻¹
  kon: 248000 M⁻¹ s⁻¹

B8: ACE2 variant antibody 4-78 (VHH)
VHH: EVQLVESGGGLVQPGGSLRLSCAASGRTFSDDTMGWFRQAPGKEREFVAGMTWSGSSTFYADSVKGRFTISADNSKNTAYLQMNSLKPEDTAVYYCATDPPLFWGQGTLVTVSS
[1]
  Kd: 10.7 nM
  koff: 0.00263 s⁻¹
  kon: 247000 M⁻¹ s⁻¹
[2]
  koff: 0.00263 s⁻¹
  kon: 247000 M⁻¹ s⁻¹

B9: ACE2 variant antibody 4-63 (VHH)
VHH: EVQLVESGGGLVQPGGSLRLSCAASGRTFSDYTMGWFRQAPGKEREFVAAINWSGGYTYYADSVKGRFTISADNSKNTAYLQMNSLKPEDTAVYYCATDPPLFWGQGTLVTVSS
[1]
  Kd: 1.7 nM
  koff: 0.00105 s⁻¹
  kon: 610000 M⁻¹ s⁻¹
[2]
  koff: 0.00105 s⁻¹
  kon: 610000 M⁻¹ s⁻¹

B10: ACE2 variant antibody 4-25 (VHH)
VHH: EVQLVESGGGLVQPGGSLRLSCAASGGTFSRYAMGWFRQAPGKEREWVSAVDSGGSTYYADSVKGRFTISADNSKNTAYLQMNSLKPEDTAVYYCAASPSLRSAWQWGQGTLVTVSS
[1]
  Kd: 38.5 nM
  koff: 0.00303 s⁻¹
  kon: 78700 M⁻¹ s⁻¹
[2]
  koff: 0.00303 s⁻¹
  kon: 78700 M⁻¹ s⁻¹

B11: ACE2 variant antibody 4-33 (VHH)
VHH: EVQLVESGGGLVQPGGSLRLSCAASGFTFSRHDMGWFRQAPGKEREFVAGINWESGSTNYADSVKGRFTISADNSKNTAYLQMNSLKPEDTAVYYCAADRGVYGGRWYRTSQYTWGQGTLVTVSS
[1]
  Kd: 2.4 nM
  koff: 0.000552 s⁻¹
  kon: 229000 M⁻¹ s⁻¹
[2]
  koff: 0.000552 s⁻¹
  kon: 229000 M⁻¹ s⁻¹

B12: variant 6-108 (Fc fusion)
VHH: EVQLVESGGGLVQPGGSLRLSCAASGGTFGSYGMGWFRQAPGKEREFVAAIRWSGGITYYADSVKGRFTISADNSKNTAYLQMNSLKPEDTAVYYCARERYWNPLPYYYYGMDVWGQGTLVTVSS
[3]
  Kd: 69.4 nM

B13: ACE2 variant antibody 4-56 (VHH)
VHH: EVQLVESGGGLVQPGGSLRLSCAASGFSLDYYGMGWFRQAPGKERESVAAISWNGDFTAYADSVKGRFTISADNSKNTAYLQMNSLKPEDTAVYYCAKRANPTGAYFDYWGQGTLVTVSS
[1]
  Kd: 18.2 nM
  koff: 0.00237 s⁻¹
  kon: 130000 M⁻¹ s⁻¹
[2]
  koff: 0.00237 s⁻¹
  kon: 130000 M⁻¹ s⁻¹

B14: ACE2 variant antibody 4-52 (VHH)
VHH: EVQLVESGGGLVQPGGSLRLSCAASGRSFSNSVMGWFRQAPGKEREFVARITWNGGSTYYADSVKGRFTISADNSKNTAYLQMNSLKPEDTAVYYCATTENPNPRWGQGTLVTVSS
[1]
  Kd: 11.8 nM
  koff: 0.00149 s⁻¹
  kon: 126000 M⁻¹ s⁻¹
[2]
  koff: 0.00149 s⁻¹
  kon: 126000 M⁻¹ s⁻¹

B15: ACE2 variant antibody 4-39 (VHH)
VHH: EVQLVESGGGLVQPGGSLRLSCAASGRTFSNAAMGWFRQAPGKEREFVARILWTGASRNYADSVKGRFTISADNSKNTAYLQMNSLKPEDTAVYYCATTENPNPRWGQGTLVTVSS
[1]
  Kd: 101 nM
  koff: 0.0137 s⁻¹
  kon: 136000 M⁻¹ s⁻¹
[2]
  koff: 0.0137 s⁻¹
  kon: 136000 M⁻¹ s⁻¹

B16: ACE2 variant antibody 4-57 (VHH)
VHH: EVQLVESGGGLVQPGGSLRLSCAASGLTFRNYAMGWFRQAPGKEREFVAAIGSGGYTDYADSVKGRFTISADNSKNTAYLQMNSLKPEDTAVYYCAVKPGWVARDPSQYNWGQGTLVTVSS
[1]
  Kd: 7.8 nM
  koff: 0.00239 s⁻¹
  kon: 307000 M⁻¹ s⁻¹
[2]
  koff: 0.00239 s⁻¹
  kon: 307000 M⁻¹ s⁻¹

B17: ACE2 variant antibody 4-64 (VHH)
VHH: EVQLVESGGGLVQPGGSLRLSCAASGRTFGDYIMGWFRQAPGKERESVAAINWSAGYTAYADSVKGRFTISADNSKNTAYLQMNSLKPEDTAVYYCATASPNTGWHFDHWGQGTLVTVSS
[1]
  Kd: 0.2 nM
  koff: 0.0007 s⁻¹
  kon: 2.9e+06 M⁻¹ s⁻¹
[2]
  koff: 0.0007 s⁻¹
  kon: 2.9e+06 M⁻¹ s⁻¹

B18: ACE2 variant antibody 4-49 (VHH)
VHH: EVQLVESGGGLVQPGGSLRLSCAASGRTFGDYIMGWFRQAPGKERESVAAINWSAGYTAYADSVKGRFTISADNSKNTAYLQMNSLKPEDTAVYYCARASPNTGWHFDHWGQGTLVTVSS
[1]
  Kd: 0.3 nM
  koff: 0.00098 s⁻¹
  kon: 2.91e+06 M⁻¹ s⁻¹
[2]
  koff: 0.00098 s⁻¹
  kon: 2.91e+06 M⁻¹ s⁻¹

B19: ACE2 variant antibody 4-41 (VHH)
VHH: EVQLVESGGGLVQPGGSLRLSCAASGRTFGDYIMGWFRQAPGKERESVAAINWSGGTTPYADSVKGRFTISADNSKNTAYLQMNSLKPEDTAVYYCATDPPLFCCHVDLWGQGTLVTVSS
[1]
  Kd: 5.6 nM
  koff: 0.001 s⁻¹
  kon: 180000 M⁻¹ s⁻¹
[2]
  koff: 0.001 s⁻¹
  kon: 180000 M⁻¹ s⁻¹

B20: ACE2 variant antibody 4-95 (VHH)
VHH: EVQLVESGGGLVQPGGSLRLSCAASGRTFGDYIMGWFRQAPGKEREIVAAINWSAGYTAYADSVKGRFTISADNSKNTAYLQMNSLKPEDTAVYYCATAPPLFCWHFDHWGQGTLVTVSS
[1]
  Kd: 18.6 nM
  koff: 0.00772 s⁻¹
  kon: 415000 M⁻¹ s⁻¹
[2]
  koff: 0.00772 s⁻¹
  kon: 415000 M⁻¹ s⁻¹

B21: ACE2 variant antibody 4-61 (VHH)
VHH: EVQLVESGGGLVQPGGSLRLSCAASGRTFGDYIMGWFRQAPGKEREIVAAINWSADYTPYADSVKGRFTISADNSKNTAYLQMNSLKPEDTAVYYCATAPPNTGWHFDHWGQGTLVTVSS
[1]
  Kd: 8.2 nM
  koff: 0.00286 s⁻¹
  kon: 348000 M⁻¹ s⁻¹
[2]
  koff: 0.00286 s⁻¹
  kon: 348000 M⁻¹ s⁻¹

B22: variant 6-112 (Fc fusion)
VHH: EVQLVESGGGLVQPGGSLRLSCAASGGTFSAYHMGWFRQAPGKERELVTIIDNGGPTSYADSVKGRFTISADNSKNTAYLQMNSLKPEDTAVYYCTALLYYFDNSGYNFDPFDIWGQGTLVTGSS
[3]
  Kd: 3230 nM

B23: ACE2 variant antibody 4-89 (VHH)
VHH: EVQLVESGGGLVQPGGSLRLSCAASGFAFGDNWIGWFRQAPGKEREWVASISSGGTTAYADNVKGRFTIIADNSKNTAYLQMNSLKPEDTAVYYCAHRGGWLRPWGYWGQGTLVTVSS
[1]
  Kd: 0.3 nM
  koff: 0.000611 s⁻¹
  kon: 2.04e+06 M⁻¹ s⁻¹
[2]
  koff: 0.000611 s⁻¹
  kon: 2.04e+06 M⁻¹ s⁻¹

B24: ACE2 variant antibody 3-8 (antibody, V domains shown)
VH: EVQLLESGGGLVQPGGSLRLSCAASGFTFRSHAMSWVRQAPGKGLEWVSSISGGGASTYYADSVKGRFTISRDNSKNTLYLQMNSLRAEDTAVYYCARVKYLTTSSGWPRPYFDNWGQGTLVTVSS
VL: DIQMTQSPSSLSASVGDRVTITCRASQSIGKYLNWYQQKPGKAPKLLIYASSTLQRGVPSRFSGSGSGTDFTLTISSLQPEDFATYYCQQSLSTPFTFGQGTKVEIK
[1]
  Kd: 44.6 nM
  koff: 0.00509 s⁻¹
  kon: 114000 M⁻¹ s⁻¹
[2]
  koff: 0.00509 s⁻¹
  kon: 114000 M⁻¹ s⁻¹

B25: ACE2 variant antibody 3-9 (antibody, V domains shown)
VH: EVQLLESGGGLVQPGGSLRLSCAASGFTFRSYAMSWVRQAPGKGLEWVSSISGGGASTYYADSVKGRFTISRDNSKNTLYLQMNSLRAEDTAVYYCARVKYLTTSSGWPRPYFDNWGQGTLVTVSS
VL: DIQMTQSPSSLSASVGDRVTITCRASQSIGKYLNWYQQKPGKAPKLLIYASSTLQRGVPSRFSGSGSGTDFTLTISSLQPEDFATYYCQQSFSTPFTFGQGTKVEIK
[1]
  Kd: 68 nM
  koff: 0.00569 s⁻¹
  kon: 83600 M⁻¹ s⁻¹
[2]
  koff: 0.00569 s⁻¹
  kon: 83600 M⁻¹ s⁻¹
